# Where no end group is shown, it is not given here.
# T1: HCRTR2 (UniProt O43614 1-444)
# T1 sequence (looked up): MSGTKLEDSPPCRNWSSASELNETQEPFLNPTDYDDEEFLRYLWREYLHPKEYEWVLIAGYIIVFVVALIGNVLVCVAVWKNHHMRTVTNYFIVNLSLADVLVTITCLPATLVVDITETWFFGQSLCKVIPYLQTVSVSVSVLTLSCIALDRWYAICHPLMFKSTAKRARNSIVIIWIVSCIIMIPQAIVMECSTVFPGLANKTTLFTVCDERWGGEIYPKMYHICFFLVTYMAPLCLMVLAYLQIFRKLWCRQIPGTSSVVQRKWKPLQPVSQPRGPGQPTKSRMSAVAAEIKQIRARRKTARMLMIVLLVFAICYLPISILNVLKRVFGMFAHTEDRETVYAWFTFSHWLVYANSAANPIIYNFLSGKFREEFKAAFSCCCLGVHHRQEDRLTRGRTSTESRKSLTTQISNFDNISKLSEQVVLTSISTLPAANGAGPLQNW
# T2: C3AR1 (UniProt Q16581 1-482)
# T2 sequence (looked up): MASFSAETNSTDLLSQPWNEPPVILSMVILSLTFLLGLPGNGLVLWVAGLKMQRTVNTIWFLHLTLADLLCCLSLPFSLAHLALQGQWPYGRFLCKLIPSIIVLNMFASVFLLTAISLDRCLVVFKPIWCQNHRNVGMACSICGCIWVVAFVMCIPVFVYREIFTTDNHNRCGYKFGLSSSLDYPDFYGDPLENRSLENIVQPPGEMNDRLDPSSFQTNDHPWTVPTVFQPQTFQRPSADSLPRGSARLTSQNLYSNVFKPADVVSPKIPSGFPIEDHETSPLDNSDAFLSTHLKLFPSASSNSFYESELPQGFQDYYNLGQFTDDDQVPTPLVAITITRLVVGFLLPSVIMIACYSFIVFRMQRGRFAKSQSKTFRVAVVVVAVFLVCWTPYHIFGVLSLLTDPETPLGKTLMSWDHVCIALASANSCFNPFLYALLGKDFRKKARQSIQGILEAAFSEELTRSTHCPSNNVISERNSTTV
# T3: FPRL1 (UniProt P25090 1-351)
# T3 sequence (looked up): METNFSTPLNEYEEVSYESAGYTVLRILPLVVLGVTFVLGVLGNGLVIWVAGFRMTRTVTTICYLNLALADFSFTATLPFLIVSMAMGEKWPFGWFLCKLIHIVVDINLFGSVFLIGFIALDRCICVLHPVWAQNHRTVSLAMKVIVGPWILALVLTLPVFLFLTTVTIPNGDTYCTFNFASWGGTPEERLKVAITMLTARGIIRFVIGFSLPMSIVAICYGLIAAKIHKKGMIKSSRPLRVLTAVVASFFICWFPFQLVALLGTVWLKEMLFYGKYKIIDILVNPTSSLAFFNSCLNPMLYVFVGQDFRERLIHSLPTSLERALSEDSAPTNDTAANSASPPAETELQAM
# T4: GPR103 (UniProt Q96P65 1-431)
# T4 sequence (looked up): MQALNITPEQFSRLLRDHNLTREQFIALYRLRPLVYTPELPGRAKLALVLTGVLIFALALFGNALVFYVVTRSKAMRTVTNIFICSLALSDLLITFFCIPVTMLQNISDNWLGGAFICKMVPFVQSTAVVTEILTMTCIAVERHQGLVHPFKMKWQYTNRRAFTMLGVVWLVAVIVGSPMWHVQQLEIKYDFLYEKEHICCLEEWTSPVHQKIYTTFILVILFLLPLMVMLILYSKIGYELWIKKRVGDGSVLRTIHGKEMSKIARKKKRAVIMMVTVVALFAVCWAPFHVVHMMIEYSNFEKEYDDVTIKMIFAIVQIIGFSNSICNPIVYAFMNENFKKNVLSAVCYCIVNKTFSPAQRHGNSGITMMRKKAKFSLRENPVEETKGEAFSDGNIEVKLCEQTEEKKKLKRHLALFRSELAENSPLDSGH
# T5: CALCR (UniProt P30988 25-474, limits assumed)
# T5 sequence (looked up): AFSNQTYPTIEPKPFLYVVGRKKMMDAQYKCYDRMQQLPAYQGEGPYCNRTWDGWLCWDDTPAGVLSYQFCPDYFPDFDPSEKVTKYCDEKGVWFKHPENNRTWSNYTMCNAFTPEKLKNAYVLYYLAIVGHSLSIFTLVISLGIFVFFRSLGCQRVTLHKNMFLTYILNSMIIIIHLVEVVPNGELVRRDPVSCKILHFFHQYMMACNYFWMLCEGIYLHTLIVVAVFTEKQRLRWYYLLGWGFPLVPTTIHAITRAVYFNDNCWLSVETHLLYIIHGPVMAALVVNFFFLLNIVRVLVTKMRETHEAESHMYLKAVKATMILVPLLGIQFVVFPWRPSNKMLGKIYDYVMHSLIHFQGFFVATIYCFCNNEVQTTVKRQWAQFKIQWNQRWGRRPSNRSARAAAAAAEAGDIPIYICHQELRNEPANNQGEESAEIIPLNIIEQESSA
# Assays:
# Experiment in all cases: cell-based or functional assay
# HCRTR2 = target: T1, HCRTR2
# C3AR1 = target: T2, C3AR1
# KISS1R = KISS1R (UniProt Q969F8 1-398)
# Sequence of KISS1R (Q969F8 whole entry): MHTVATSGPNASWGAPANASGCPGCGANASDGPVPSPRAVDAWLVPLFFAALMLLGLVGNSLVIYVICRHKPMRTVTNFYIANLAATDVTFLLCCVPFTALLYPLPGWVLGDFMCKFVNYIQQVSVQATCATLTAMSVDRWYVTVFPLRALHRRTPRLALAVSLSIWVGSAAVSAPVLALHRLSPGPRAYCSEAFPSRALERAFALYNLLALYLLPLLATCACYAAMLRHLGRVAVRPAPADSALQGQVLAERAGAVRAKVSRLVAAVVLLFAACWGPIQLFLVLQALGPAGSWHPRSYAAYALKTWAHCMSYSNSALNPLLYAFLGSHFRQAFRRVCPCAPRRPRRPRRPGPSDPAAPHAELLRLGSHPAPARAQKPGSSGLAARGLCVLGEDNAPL
# PTAFR = PTAFR (UniProt P25105 1-342)
# Sequence of PTAFR (P25105 whole entry): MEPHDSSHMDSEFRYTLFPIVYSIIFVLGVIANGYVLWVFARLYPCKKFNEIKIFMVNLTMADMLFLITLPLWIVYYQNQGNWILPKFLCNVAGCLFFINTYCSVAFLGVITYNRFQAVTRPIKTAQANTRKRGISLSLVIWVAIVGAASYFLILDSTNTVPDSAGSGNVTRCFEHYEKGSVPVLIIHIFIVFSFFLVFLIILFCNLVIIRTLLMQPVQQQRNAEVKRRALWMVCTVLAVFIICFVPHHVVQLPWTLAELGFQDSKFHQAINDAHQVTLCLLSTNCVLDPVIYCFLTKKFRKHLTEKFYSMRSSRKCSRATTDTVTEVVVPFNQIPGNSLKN
# DRD1 = DRD1 (UniProt P21728 1-446)
# Sequence of DRD1 (P21728 whole entry): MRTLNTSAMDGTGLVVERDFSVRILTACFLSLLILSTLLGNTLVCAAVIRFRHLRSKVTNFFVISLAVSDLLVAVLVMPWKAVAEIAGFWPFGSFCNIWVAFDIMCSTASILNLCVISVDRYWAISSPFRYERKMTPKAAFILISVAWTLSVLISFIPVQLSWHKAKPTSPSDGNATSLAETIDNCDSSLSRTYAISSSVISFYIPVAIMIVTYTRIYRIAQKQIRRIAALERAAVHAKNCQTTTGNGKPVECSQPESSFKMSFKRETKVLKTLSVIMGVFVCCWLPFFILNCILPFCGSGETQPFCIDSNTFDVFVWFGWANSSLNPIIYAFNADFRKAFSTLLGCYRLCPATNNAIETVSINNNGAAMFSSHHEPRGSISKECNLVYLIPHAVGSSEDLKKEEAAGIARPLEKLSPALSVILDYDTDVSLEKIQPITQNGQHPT
# PTHR2 = PTHR2 (UniProt P49190 25-550)
# Sequence of PTHR2 (P49190 25-550 limits assumed): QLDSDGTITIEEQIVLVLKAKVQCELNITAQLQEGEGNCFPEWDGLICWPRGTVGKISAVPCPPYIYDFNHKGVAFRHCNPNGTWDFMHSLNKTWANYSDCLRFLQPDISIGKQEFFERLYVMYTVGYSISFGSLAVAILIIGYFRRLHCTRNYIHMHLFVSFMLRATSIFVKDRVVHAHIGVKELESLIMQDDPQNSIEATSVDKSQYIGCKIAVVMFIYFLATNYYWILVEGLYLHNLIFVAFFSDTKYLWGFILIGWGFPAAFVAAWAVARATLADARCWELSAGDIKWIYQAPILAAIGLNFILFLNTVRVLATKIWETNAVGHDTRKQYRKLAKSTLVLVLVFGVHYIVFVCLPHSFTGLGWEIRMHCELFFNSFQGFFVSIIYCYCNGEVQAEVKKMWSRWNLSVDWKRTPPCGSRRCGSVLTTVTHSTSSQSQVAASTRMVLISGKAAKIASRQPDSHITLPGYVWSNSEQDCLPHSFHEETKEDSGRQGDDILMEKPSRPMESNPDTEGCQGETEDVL
# FPRL1 = target: T3, FPRL1
# CNR1 = CNR1 (UniProt P21554 1-472)
# Sequence of CNR1 (P21554 whole entry): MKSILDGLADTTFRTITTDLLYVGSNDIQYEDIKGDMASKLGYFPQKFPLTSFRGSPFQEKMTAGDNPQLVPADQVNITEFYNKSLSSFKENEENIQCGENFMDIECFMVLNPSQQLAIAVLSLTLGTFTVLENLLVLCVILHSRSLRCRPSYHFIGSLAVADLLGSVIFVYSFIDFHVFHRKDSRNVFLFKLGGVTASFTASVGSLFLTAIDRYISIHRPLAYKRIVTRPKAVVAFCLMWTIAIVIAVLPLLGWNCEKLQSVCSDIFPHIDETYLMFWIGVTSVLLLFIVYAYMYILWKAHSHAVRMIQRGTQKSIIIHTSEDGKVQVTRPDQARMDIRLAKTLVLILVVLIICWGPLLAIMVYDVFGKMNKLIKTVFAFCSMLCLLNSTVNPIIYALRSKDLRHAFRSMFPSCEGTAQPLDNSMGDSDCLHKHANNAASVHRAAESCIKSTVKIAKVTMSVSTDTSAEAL
# GPR103 = target: T4, GPR103
# ADRB1 = ADRB1 (UniProt P08588 1-477)
# Sequence of ADRB1 (P08588 whole entry): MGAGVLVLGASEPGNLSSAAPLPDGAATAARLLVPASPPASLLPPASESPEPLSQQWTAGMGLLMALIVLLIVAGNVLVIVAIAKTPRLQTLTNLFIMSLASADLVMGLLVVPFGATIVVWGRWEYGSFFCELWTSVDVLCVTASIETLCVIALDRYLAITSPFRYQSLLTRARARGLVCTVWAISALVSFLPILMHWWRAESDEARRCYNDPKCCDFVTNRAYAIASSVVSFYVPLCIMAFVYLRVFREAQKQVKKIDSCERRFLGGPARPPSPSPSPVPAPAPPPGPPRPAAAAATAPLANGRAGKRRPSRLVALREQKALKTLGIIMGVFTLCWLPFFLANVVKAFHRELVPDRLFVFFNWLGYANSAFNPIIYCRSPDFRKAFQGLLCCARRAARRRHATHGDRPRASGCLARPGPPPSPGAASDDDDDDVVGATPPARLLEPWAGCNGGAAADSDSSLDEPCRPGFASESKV
# EDG1 = EDG1 (UniProt P21453 1-382)
# Sequence of EDG1 (P21453 whole entry): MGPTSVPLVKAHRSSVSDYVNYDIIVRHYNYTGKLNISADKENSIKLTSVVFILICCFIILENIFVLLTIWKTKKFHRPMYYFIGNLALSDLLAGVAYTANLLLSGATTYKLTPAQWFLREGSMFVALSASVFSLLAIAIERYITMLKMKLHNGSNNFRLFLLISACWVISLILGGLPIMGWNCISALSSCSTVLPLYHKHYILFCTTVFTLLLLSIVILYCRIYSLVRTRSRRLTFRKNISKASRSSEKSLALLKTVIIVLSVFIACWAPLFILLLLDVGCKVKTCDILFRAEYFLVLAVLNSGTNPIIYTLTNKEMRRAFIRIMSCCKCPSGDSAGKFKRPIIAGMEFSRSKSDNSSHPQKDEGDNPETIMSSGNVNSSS
# CHRM3 = CHRM3 (UniProt P20309 1-590)
# Sequence of CHRM3 (P20309 whole entry): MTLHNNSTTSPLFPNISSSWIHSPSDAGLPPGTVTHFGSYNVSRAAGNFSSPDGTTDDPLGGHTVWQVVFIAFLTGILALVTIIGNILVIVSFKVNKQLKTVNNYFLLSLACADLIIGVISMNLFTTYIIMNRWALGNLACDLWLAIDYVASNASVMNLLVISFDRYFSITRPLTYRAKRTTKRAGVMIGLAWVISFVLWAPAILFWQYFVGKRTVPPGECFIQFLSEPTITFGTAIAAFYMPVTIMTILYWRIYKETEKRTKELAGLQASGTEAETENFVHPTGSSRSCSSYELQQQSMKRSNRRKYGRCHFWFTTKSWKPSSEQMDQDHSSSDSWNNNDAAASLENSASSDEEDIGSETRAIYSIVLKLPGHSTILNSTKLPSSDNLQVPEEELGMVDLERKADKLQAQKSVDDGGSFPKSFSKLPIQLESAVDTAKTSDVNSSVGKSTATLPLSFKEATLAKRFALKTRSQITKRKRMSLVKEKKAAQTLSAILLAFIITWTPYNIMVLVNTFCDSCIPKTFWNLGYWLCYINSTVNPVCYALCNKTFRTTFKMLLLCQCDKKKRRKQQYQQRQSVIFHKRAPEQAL
# PROKR2 = PROKR2 (UniProt Q8NFJ6 1-384)
# Sequence of PROKR2 (Q8NFJ6 whole entry): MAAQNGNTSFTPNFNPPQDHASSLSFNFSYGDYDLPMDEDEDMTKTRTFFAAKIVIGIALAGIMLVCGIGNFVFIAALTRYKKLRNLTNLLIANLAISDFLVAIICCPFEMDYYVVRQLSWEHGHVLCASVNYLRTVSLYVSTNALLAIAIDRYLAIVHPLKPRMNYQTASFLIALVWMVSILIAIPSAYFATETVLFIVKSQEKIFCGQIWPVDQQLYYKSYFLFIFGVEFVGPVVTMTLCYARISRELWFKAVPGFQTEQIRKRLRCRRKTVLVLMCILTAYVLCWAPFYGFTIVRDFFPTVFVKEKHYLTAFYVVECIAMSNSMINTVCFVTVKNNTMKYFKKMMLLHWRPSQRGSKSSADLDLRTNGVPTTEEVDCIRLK
# CALCR = target: T5, CALCR
# GRPR = GRPR (UniProt P30550 1-384)
# Sequence of GRPR (P30550 whole entry): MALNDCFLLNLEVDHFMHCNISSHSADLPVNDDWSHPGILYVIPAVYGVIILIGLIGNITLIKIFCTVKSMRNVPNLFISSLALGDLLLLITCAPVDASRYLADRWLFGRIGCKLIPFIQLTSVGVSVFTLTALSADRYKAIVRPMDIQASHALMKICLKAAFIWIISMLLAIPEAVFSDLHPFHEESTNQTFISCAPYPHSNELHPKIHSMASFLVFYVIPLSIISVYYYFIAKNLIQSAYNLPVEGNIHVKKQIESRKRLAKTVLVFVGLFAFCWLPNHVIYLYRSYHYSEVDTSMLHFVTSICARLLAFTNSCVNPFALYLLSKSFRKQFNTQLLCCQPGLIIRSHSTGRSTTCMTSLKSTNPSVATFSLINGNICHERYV
binder,measurement,setting,value
"QATVGDVNTDRPGLLDLK (also: synthesised on Rink amide resin, C-terminal amide not given here outright) [octadecaneuropeptide (ODN)]","% Activity, arrestin, antagonist mode, 2.5 uM",HCRTR2,-2.7%
same,"% Activity, arrestin, antagonist mode, 2.5 uM",C3AR1,4%
same,"% Activity, arrestin, antagonist mode, 2.5 uM",KISS1R,13.2%
same,"% Activity, arrestin, antagonist mode, 2.5 uM",PTAFR,-7.3%
same,"% Activity, arrestin, antagonist mode, 2.5 uM",DRD1,5.7%
same,"% Activity, arrestin, antagonist mode, 2.5 uM",PTHR2,4.5%
same,"% Activity, arrestin, antagonist mode, 2.5 uM",FPRL1,-17.7%
same,"% Activity, arrestin, antagonist mode, 2.5 uM",CNR1,-37.5%
same,"% Activity, arrestin, antagonist mode, 2.5 uM",GPR103,14.6%
same,"% Activity, arrestin, antagonist mode, 2.5 uM",ADRB1,12.6%
same,"% Activity, arrestin, antagonist mode, 2.5 uM",EDG1,-25.9%
same,"% Activity, arrestin, antagonist mode, 2.5 uM",CHRM3,12.6%
same,"% Activity, arrestin, antagonist mode, 2.5 uM",PROKR2,-17.5%
same,"% Activity, arrestin, antagonist mode, 2.5 uM",CALCR,-22.3%
same,"% Activity, arrestin, antagonist mode, 2.5 uM",GRPR,-12.2%
